In US20220002344A1:
Square brackets hold non-standard residues; d marks the D form. Primed or numbered codes have the meaning given here. Ends that are not written are not given here. FITC′ = fluorescein isothiocyanate label; Cha = N[C@@H](CC1CCCCC1)C(=O)O

Columns and labels:
[1] = target: E. coli 70S ribosome particle (E. coli); test: ITC, 30 °C, E. coli ribosome
[2] = target: E. coli sliding clamp (DnaN protein, β subunit of DNA polymerase III) (E. coli) (UniProt P0A988); test: cell-based or functional assay
[3] = target: E. coli 70S ribosome particle (E. coli); test: ITC, 30 °C, peptide titrated into E. coli 70S ribosome

E. coli sliding clamp (DnaN protein, β subunit of DNA polymerase III) (E. coli), sequence (P0A988 whole entry): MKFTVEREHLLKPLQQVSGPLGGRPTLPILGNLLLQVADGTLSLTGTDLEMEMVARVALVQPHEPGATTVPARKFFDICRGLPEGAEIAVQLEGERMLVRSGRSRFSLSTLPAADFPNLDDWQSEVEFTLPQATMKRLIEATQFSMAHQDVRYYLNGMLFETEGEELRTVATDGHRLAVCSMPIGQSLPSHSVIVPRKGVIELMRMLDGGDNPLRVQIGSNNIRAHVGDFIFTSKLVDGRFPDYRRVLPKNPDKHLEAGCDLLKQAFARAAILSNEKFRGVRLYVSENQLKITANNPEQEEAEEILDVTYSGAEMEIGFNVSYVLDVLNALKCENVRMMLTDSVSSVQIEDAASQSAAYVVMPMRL

B1: CA3-124 (FITC-Onc112), FITC-…rIYNr-NH2 (peptide)
peptide: {FITC′}-VDKPPYLPRPRPPR[dR]IYN[dR]-NH2
modifications: not fully specified
**Q.** B1 was tested. Which Kd [1] did it give?
**A.** 7.7 µM

**Q.** What about the ΔG [1] of the same binder?
**A.** -7.1 kcal/mol

**Q.** What about the ΔH [1] of the same binder?
**A.** -22.6 kcal/mol

B2: CM1-92 (FITC-Onc112-P7), FITC-K-…rIYNrGPRQChaDLF-OH (peptide)
peptide: {FITC′}-KVDKPPYLPRPRPPR[dR]IYN[dR]GPRQ[Cha]DLF-OH
modifications: not fully specified
**Q.** With B2 as the binder, how does the MIC (µM), E. coli ATCC 25922, Mueller-Hinton broth [2] read?
**A.** 16 µM

B3: P188 (Py-P7Scr), …haGQLD-OH (peptide)
peptide: VDKGSYLPRPTPPRPIYNRNGPR[Cha]FQLD-OH
**Q.** How did the -TΔS [3] turn out when B3 was run?
**A.** 5.5 kcal/mol

**Q.** What about the Kd [3] of the same binder?
**A.** 0.0758 µM

**Q.** What about the ΔG [3] of the same binder?
**A.** -9.89 kcal/mol

**Q.** And the ΔH [3]?
**A.** -15.4 kcal/mol
